Experimental data reported in PMC12394075, “Domain coupling in activation of a family C GPCR” (Nature Chemical Biology, 2024).

Biological target: the molecule itself
Assay: SEC; Superdex 200 10/300 increase; 100 mM NaCl, 20 mM HEPES, pH 7.5

B1: isolated mGluR2 LBD (residues 22–502 with a Cys234Ser mutation) (domain or fragment, UniProt P31421 22-502, looked up)
chain: AKKVLTLEGDLVLGGLFPVHQKGGPAEECGPVNEHRGIQRLEAMLFALDRINRDPHLLPGVRLGAHILDSCSKDTHALEQALDFVRASLSRGADGSRHICPDGSYATHSDAPTAVTGVIGGSYSDVSIQVANLLRLFQIPQISYASTSAKLSDKSRYDYFARTVPPDFFQAKAMAEILRFFNWTYVSTVASEGDYGETGIEAFELEARARNISVATSEKVGRAMSRAAFEGVVRALLQKPSARVAVLFTRSEDARELLAATQRLNASFTWVASDGWGALESVVAGSERAAEGAITIELASYPISDFASYFQSLDPWNNSRNPWFREFWEERFHCSFRQRDCAAHSLRAVPFEQESKIMFVVNAVYAMAHALHNMHRALCPNTTHLCDAMRPVNGRRLYKDFVLNVKFDAPFRPADTDDEVRFDRFGDGIGRYNIFTYLRAGSGRYRYQKVGYWAEGLTLDTSFIPWASPSAGPLPASRCSE
notes: Rat is surmised because the same peptides are compared with the full-length rat construct; the simulations used human mGluR2; also called LBD-alone construct; LBD-only construct; source: Expi293 GNTI- cells, secreted into media, purified (anti-FLAG M2 resin, SEC)
In the case of B1, the “stoichiometry N” value is reported as 2.
